Data as given in article PMC314469, “Protein Interaction Networks by Proteome Peptide Scanning” (PLoS Biology, 2004).

T1: Abp1 SH3 (ABP1_YEAST), P15891
T1 chain: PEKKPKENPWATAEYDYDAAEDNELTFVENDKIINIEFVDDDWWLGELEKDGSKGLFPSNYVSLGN


Target: T1, Abp1 SH3 (ABP1_YEAST), P15891
Assay: SPOT array

Binder	normalised SPOT signal, Boehringer light units (BLU); mean over the file's lines of this peptide
VLALNNLSQDPPKP [YJR033C 294-307]	105
VEQSATIPESIKP [YGL238W 669-681]	27.7
VFSGVTNQPSPIRP [YER129W 661-674]	98.3
VSDKTKKKTVPVKP [YBL017C 681-694]	171
VADVQWSPHPAKP [YDR128W 70-82]	66.3
VELVTVRPLDEKP [YJL105W 434-446]	20.9
TYFSVEAPPSIRP [YEL044W 99-111]	76.1
VEVDMSLPENQKP [YBR111C 165-177]	20.2
VGGNPDIPSLLKP [YHR080C 52-64]	87.4
VEYDYVDPRQLKP [YGL236C 383-395]	51.9
TTPTIETPISSKP [YJL005W 370-382]	38.3
VDGLSNPPTLLRP [YGL169W 237-249]	21.8
VFSKMAKKLLPYKP [YBR270C 205-218]	896
VDQLDTASIHPSRP [YGL115W 118-131]	110
TSKMLKPPKQRRP [YDR389W 475-487]	617
VDDYNASFELPLKP [YGL134W 27-40]	95.4
VIIEFSSPNIAKP [YDR341C 145-157]	38.1
TVPTNHVPNYIKP [YGR165W 78-90]	3.6
TSLFDNIPSIYRP [YGL169W 124-136]	43.4

Binder	normalised SPOT signal, Boehringer light units (BLU); mean over the file's lines of this peptide
VAFILLTPIHSRP [YGL160W 214-226]	48.3
TTKGENIKITPQKP [YJR122W 470-483]	166
VIAILNPEVLPWRP [YIL150C 263-276]	78.9
TVADTLQPGLPHKP [YKL148C 463-476]	169
VITPSQLPNSVRP [YFL036W 250-262]	214
VILDARLPKNVKP [YDR107C 200-212]	99.6
TSSSPLGPSAAKP [YDL224C 233-245]	133
TTTYKSRPDRPKP [YBR289W 757-769]	1770
VAIIYYKPYLDRP [YGL139W 508-520]	76.3
VEKINTFKTLPTKP [YDL202W 178-191]	385
VDTFEDEPDKLKP [YGR210C 280-292]	93.9
VDGGMAFNPDPKKP [YER095W 331-344]	74.7
VDRDSAIFYLPQRP [YKL188C 543-556]	66.1
VLSTLYQPNGFRP [YHR194W 300-312]	54.5
TTKKQENPQWLRP [YBL014C 33-45]	126
TSKHWVLPPRPRP [YKL109W 65-77]	3940
VEEYWGKKFEPERP [YJR137C 1184-1197]	89.3
TYVHAWDMRSPHRP [YDR128W 137-150]	489

The next lines start with the values.

normalised SPOT signal, Boehringer light units (BLU); mean over the file's lines of this peptide	Binder
935	VSGTRQSPIPKKP [YML007W 309-321]
12.6	VKDYWEHPQAYKP [YMR250W 428-440]
-0	VFKDPEGDYKPIKP [YLR084C 1187-1200]
82	VEFKKDLEEGPTKP [YML074C 275-288]
97.4	VGNYAYGAGHPMKP [YNL330C 29-42]
356	TVKKPARPWRAKP [YKL220C 449-461]
57.5	VIWQATTPVDVKP [YLR381W 153-165]
133	TTAQDGSSALPSKP [YLR431C 386-399]
124	TRKSVNIKSWPLKP [YNL226W 110-123]
140	VIAVNDNPVVPRP [YOR324C 73-85]
104	TTVPQQLPLEPLKP [YOR329C 400-413]
145	VIRNFRFVGLPKKP [YPR155C 202-215]
172	VDRGVGEWYKPDRP [YNL108C 86-99]
352	TVQRYYKTTVPTKP [YKR084C 138-151]
65.5	TVEYIRPETLPKKP [YNR051C 370-383]
64.4	VENLGTNVTPPLRP [YPL242C 22-35]
176	TYQTLHSPKKFKP [YOR022C 44-56]
156	VAIIRYKPYLDRP [YPL221W 502-514]
191	TVIYANAPIEEKP [YLR414C 249-261]
83.1	TTGLNGSPTRGKP [YLL003W 876-888]
73	VERNFTDPGDGKP [YMR238W 135-147]
118	VFYENNSPEKEKP [YOR129C 465-477]
